Laboratory results reported in the supplement of paper PMC9233669.
Variants at the floor of the assay were thinned out.

Legend:
[1] = tested on: biotinyl-Phe-oxazolone; experiment: self-aminoacylation, catalytic enhancement (BFO) (fold over background); higher = more active; k-Seq, kA / k0A0; sequences stand for … in GGGAAUGGAUCCACAUCUACGAAUUC…UUCACUGCAGACUUGACGAAGCUG
Outline: (§1)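 Mutagenized RNA pools with a 21-nt variable region (0.43 μM) reacted with each biotinyl-aminoacyl-oxazolone at 2–1250 μM. Reactions ran in 50 μL HEPES/NaCl/KCl/MgCl2/CaCl2 buffer with 5% acetonitrile, pH 6.9–7.0, for 90 minutes at room temperature. Streptavidin-captured RNA was quantified by triplicate qPCR and Illumina sequencing, and per-sequence fraction reacted was fit to a pseudo-first-order model with 1000 bootstraps. Catalytic enhancement is median kA divided by the uncatalyzed rate, the low-activity peak of a bimodal Gaussian fit.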

[2] = tested on: biotinyl-Leu-oxazolone; experiment: self-aminoacylation, catalytic enhancement (BLO) (fold over background); higher = more active; k-Seq, kA / k0A0; sequences stand for … in GGGAAUGGAUCCACAUCUACGAAUUC…UUCACUGCAGACUUGACGAAGCUG
Outline: as §1

[3] = tested on: biotinyl-Val-oxazolone; experiment: self-aminoacylation, catalytic enhancement (BVO) (fold over background); higher = more active; k-Seq, kA / k0A0; sequences stand for … in GGGAAUGGAUCCACAUCUACGAAUUC…UUCACUGCAGACUUGACGAAGCUG
Outline: as §1

[4] = tested on: biotinyl-Trp-oxazolone; experiment: self-aminoacylation, catalytic enhancement (BWO) (fold over background); higher = more active; k-Seq, kA / k0A0; sequences stand for … in GGGAAUGGAUCCACAUCUACGAAUUC…UUCACUGCAGACUUGACGAAGCUG
Outline: as §1

[5] = tested on: biotinyl-Met-oxazolone; experiment: self-aminoacylation, catalytic enhancement (BMO) (fold over background); higher = more active; k-Seq, kA / k0A0; sequences stand for … in GGGAAUGGAUCCACAUCUACGAAUUC…UUCACUGCAGACUUGACGAAGCUG
Outline: as §1

[6] = tested on: biotinyl-Ile-oxazolone; experiment: self-aminoacylation, catalytic enhancement (BIO) (fold over background); higher = more active; k-Seq, kA / k0A0; sequences stand for … in GGGAAUGGAUCCACAUCUACGAAUUC…UUCACUGCAGACUUGACGAAGCUG
Outline: as §1

Sequence | self-aminoacylation [1] | self-aminoacylation [2] | self-aminoacylation [3] | self-aminoacylation [4] | self-aminoacylation [5] | self-aminoacylation [6]
AUUAACCUGGUCAUCGAGUGC [Fam2.1 aminoacylation ribozyme variant] | 0.898 | 1.18 | 1.1 | 0.854 | 1.25 | 0.994
AUUAACCUGGUCAUCUAGUGA [Fam2.1 aminoacylation ribozyme variant] | 52.4 | 9.7 | 4.53 | 11.1 | 9.41 | 4.57
AUUAACCUGGUCAUGGAGUGA [Fam2.1 aminoacylation ribozyme variant] | 9.66 | 3.54 | 2.02 | 4.5 | 4.08 | 2.45
AUUAACCUUGUCAUCGAGUGA [Fam2.1 aminoacylation ribozyme variant] | 17.6 | 6.72 | 3.39 | 7.59 | 6.16 | 3.25
AUUAACUUAGGUCAUCGGGUG [Fam2.2 aminoacylation ribozyme variant] | 28.7 | 4.73 | 2.59 | 4.85 | 4.59 | 2.79
AUUAAGCUAGGUCAUCGGGUG [Fam2.2 aminoacylation ribozyme variant] | 34.3 | 5.1 | 3.77 | 4.85 | 3.88 | 3.11
AUUACACUGGUCAUCGAGUGA [Fam2.1 aminoacylation ribozyme variant] | 19.7 | 5.86 | 3.09 | 6.94 | 5.44 | 3.17
AUUACACUGGUCAUCGCGUGA [Fam2.1 aminoacylation ribozyme variant] | 102 | 14.4 | 7.07 | 14.6 | 12.6 | 6.84
AUUACACUGGUCAUCGUGUGA [Fam2.1 aminoacylation ribozyme variant] | 13.8 | 2.8 | 1.56 | 3 | 3.15 | 1.75
AUUACACUGGUCCUCGAGUGA [Fam2.1 aminoacylation ribozyme variant] | 23.4 | 4.8 | 2.32 | 5.79 | 5.17 | 2.72
AUUACACUUGUCAUCGAGUGA [Fam2.1 aminoacylation ribozyme variant] | 11.4 | 4.35 | 2.59 | 5.31 | 4.21 | 2.51
AUUACCAAGGUCAUCGAGUGA [Fam2.1 aminoacylation ribozyme variant] | 43.2 | 8.44 | 3.96 | 9.76 | 7.64 | 3.64
AUUACCACGGUCAUCGAGUGA [Fam2.1 aminoacylation ribozyme variant] | 38.3 | 5.96 | 3.66 | 8.11 | 6.51 | 3.48
AUUACCAUCGUCAUCGAGUGA [Fam2.1 aminoacylation ribozyme variant] | 5.68 | 3.6 | 2.32 | 3.53 | 3.19 | 2.21
AUUACCAUGGUCAUCGAGUGA [Fam2.1 aminoacylation ribozyme variant] | 12 | 9.28 | 4.75 | 10.7 | 8.61 | 4.49
AUUACCAUGGUCUUCGAGUGA [Fam2.1 aminoacylation ribozyme variant] | 28 | 6.61 | 3.35 | 7.3 | 5.47 | 3.56
AUUACCAUGGUGAUCGAGUGA [Fam2.1 aminoacylation ribozyme variant] | 14.7 | 4.04 | 2.4 | 4.4 | 3.59 | 2.33
AUUACCCAAGUCAUCGAGUGA [Fam2.1 aminoacylation ribozyme variant] | 42.4 | 9.5 | 4.46 | 9.59 | 8.57 | 4.5
AUUACCCAGAUCAUCGAGUGA [Fam2.1 aminoacylation ribozyme variant] | 15.2 | 5 | 2.99 | 7.37 | 5.55 | 3.1
AUUACCCAGGUAAUCGAGUGA [Fam2.1 aminoacylation ribozyme variant] | 44.6 | 8.05 | 3.56 | 9.28 | 7.57 | 3.26
AUUACCCAGGUCAUCGAUUGA [Fam2.1 aminoacylation ribozyme variant] | 0.642 | 0.826 | 0.759 | 0.511 | 0.825 | 0.872
AUUACCCAGGUCAUCUAGUGA [Fam2.1 aminoacylation ribozyme variant] | 59.3 | 9.76 | 5.97 | 12.2 | 10.7 | 4.62
